Data published in article PMC1343571.

Columns and labels:
[1] = target: Human surfactant protein-A (SP-A) (human) (UniProt Q8IWL2)
[2] = target: Human surfactant protein-A (SP-A) (human) (UniProt Q8IWL2); experiment: SEC; gel filtration HPLC, two Biosep-SEC-S 4000 columns in series; SP-A (1.62 mg/ml) and α1-AT (1 mg/ml), 1:50 molar ratio, incubated 24 hrs at 37°C in phosphate buffer; eluted with 100 mM Na2HPO4, 2 mM CaCl2, pH 6.8

turnover number per inactivation of HNE, unmodified SP-A with α1-AT [1]: 24
stoichiometry N (molecules of α1-AT per molecule of SP-A) [2]: 18
Substance: Wild-type α1-antitrypsin (M α1-AT) (from UniProt P01009 25-418) (natural protein)
